Data published in patent US9301997B2, “Method of vaccination for limiting articular inflammation in rheumatoid arthritis and multiple sclerosis by administering IL-23 peptides” (PEPTINOV SAS, priority 2009, dated 2016).

Experiments:
[1] = target: T1, human IL-23 (Homo sapiens, UniProt Q9NPF7); assay: Neutralization assay for human IL-23 (IL-17 secretion by purified mouse splenocytes); assay type: cell-based; settings: for Neutralization of the biological activity of human IL-23: purified IgG of immunized rabbits, result in words; for Average % neutralization, SD: purified rabbit antibodies at a dilution of 1/20, 1 ng/mL bioactive hIL-23
T1 sequence (Q9NPF7 20-189): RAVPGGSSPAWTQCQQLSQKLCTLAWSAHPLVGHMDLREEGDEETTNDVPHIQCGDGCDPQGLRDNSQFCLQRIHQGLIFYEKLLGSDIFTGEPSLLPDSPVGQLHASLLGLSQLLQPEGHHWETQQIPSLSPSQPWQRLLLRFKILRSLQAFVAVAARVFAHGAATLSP
T1 sequence (P29460 23-328 partner): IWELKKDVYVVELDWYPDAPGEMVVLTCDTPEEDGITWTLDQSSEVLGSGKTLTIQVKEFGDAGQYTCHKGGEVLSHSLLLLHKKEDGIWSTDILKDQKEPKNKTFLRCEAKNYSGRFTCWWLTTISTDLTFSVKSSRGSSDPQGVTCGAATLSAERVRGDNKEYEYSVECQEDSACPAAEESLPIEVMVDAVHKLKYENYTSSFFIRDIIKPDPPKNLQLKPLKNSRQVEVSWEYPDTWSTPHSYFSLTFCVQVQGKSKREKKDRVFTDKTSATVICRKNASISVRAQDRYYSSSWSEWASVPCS
Method: The neutralization capacity of the purified total IgG fraction derived from the 4 immunized rabbits of example 1 was then tested in a neutralization assay for human IL-23. The test is based on the fact that purified mouse splenocytes secrete IL-17 in a dose dependent fashion, in response to the stimulation with bioactive human IL-23 (cf. FIG. 2). On the x-axis one can see the various dilutions of the IgG tested and on the y-axis the production of IL-17 as an optical density value. One sees that the IgG fraction of rabbits immunized against the peptide neutralize the biological activity of human IL-23 in a dose-dependent fashion. Each bar represents the mean of the tests performed with the 4 purified antibodies; the standard deviation is also indicated. The experimental conditions comprise two negative controls (no human IL-23 and no inhibitor) and a positive control with an anti-hIL-23 neutralizing antibody sold from the company R&D Systems (# ref: AF1716).
(§1) Four New Zealand rabbits were immunized with the cyclised peptide Y-C-KGE PAL LPD SP-C derived from the murine IL-23, similarly as in the protocol described in Example 1. The peptide was coupled with KLH via BDB and a supplementary tyrosine. The sera of the animals were purified by affinity column against protein A and the purified antibodies were tested in ELISA and in neutralisation assays. For ELISA, plates were coated either with murine or with human IL-23 and individual sera were tested at different dilutions to determine the Titer50. The titer corresponds to the dilution corresponding yielding an OD value at 50% of the maximal OD score (obtained for the smallest dilution, 1/50e). In parallel, different dilutions of the purified rabbit antibodies were tested on IL-23 neutralisation assays, similarly as in Examples 2, 3, and 4. Table 1 presents the average neutralisation obtained for the 4 purified antibodies rabbit at a dilution of 1/20 and in the presence of 1 ng/mL of bioactive mIL-23 or hIL-23.

[2] = target: T2, murine IL-23 (Mus musculus, UniProt Q9EQ14); assay: Neutralization assay for murine IL-23 (IL-17 secretion by purified mouse splenocytes); assay type: cell-based; settings: purified IgG of immunized rabbits, result in words
T2 sequence (Q9EQ14 22-196): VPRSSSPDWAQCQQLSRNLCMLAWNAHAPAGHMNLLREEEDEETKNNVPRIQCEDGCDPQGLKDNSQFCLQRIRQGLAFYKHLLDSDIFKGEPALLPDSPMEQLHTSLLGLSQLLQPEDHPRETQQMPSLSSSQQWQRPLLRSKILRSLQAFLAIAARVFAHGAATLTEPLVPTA
T2 sequence (P43432 23-335 partner): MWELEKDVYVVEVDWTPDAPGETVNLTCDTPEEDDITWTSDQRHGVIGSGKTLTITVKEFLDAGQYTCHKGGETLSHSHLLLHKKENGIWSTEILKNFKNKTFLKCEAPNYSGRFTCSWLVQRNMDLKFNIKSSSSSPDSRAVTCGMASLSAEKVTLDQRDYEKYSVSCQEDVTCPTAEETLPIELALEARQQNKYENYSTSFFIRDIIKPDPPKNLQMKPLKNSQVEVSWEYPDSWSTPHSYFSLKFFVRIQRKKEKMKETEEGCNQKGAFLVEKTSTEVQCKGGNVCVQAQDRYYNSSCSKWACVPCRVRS
Source text: The same IgG fraction from 4 immunized rabbits used in example 2 is used for a test of neutralization of the murine IL-23 cytokine. The test for murine IL-23 is based on the fact that purified mouse splenocytes secrete IL-17 in a dose dependent fashion, in response to the stimulation with bioactive […] IL-23 (cf. FIG. 3). One sees that the IgG fraction of rabbits immunized against the human IL-23 peptide can neutralize the biological activity of murine IL-23 in a dose-dependent fashion. Each bar represents the mean of the tests performed with the 4 purified antibodies; the standard deviation is also indicated. There are two negative controls (no mouse IL-23 and no inhibitor) and a positive control with an anti-murine IL-23 neutralizing antibody sold from the company R&D Systems (# ref: AF1619).
(§2) Four New Zealand rabbits were immunized with the cyclised peptide Y-C-KGE PAL LPD SP-C derived from the murine IL-23, similarly as in the protocol described in Example 1. The peptide was coupled with KLH via BDB and a supplementary tyrosine. The sera of the animals were purified by affinity column against protein A and the purified antibodies were tested in ELISA and in neutralisation assays. For ELISA, plates were coated either with murine or with human IL-23 and individual sera were tested at different dilutions to determine the Titer50. […]

[3] = target: T2, murine IL-23; assay: ELISA of purified rabbit antibodies on plates coated with murine IL-23; assay type: binding; settings: antibodies of immunized rabbits, result in words
Method: (§3) Specific-pathogen-free New Zealand rabbits (n=4) are immunized with 100 μg of a peptide derivative of human IL-23 by five immunizations in CFA/IFA at day 0, 14, 28, 56 and 70. The peptide, whose sequence is C-GSD IFT GEP SLL PDS PVG QL-C-Y, was coupled to KLH with BDB. The sera from immunized rabbits were taken at day 82 after initial immunization, and the antibodies were purified by affinity chromatography against protein A. The purified antibodies were tested by ELISA at various dilutions and on a plate coated either by human IL-23 or by murine IL-23 (cf. FIG. 1). The mean OD value of the […] purified sera is given at the various dilutions for the ELISA tests against murine IL-23 (dotted line) and against human IL-23 (regular line).
as §2

[4] = target: T1, human IL-23; assay: ELISA of purified rabbit antibodies on plates coated with human IL-23; assay type: binding; settings: for Recognition of human IL-23 by antibodies raised against the peptide (ELISA): antibodies of immunized rabbits, result in words; for Average Titers50 (ELISA), SD: purified antibodies of rabbits immunized with the KLH-coupled peptide, plate coated with human IL-23, dilution yielding 50% of maximal OD
Method: as §3, §1

[5] = target: T2, murine IL-23; assay: Auto-antibody response against murine IL-23 in immunized mice (serum ELISA); assay type: in vivo; settings: OF1 mice immunized intra-muscularly, 100 μg/injection, sera tested at 1/500
Method: A peptide of murine IL-23 is coupled to KLH in the presence of a coupling agent (BDB). The peptide has been cyclised thanks to the addition of 2 cysteine residues coupled to BDB through an additional tyrosine; its amino-acid sequence is: C-DSD IFK GEP ALL PDS PME QL-C-Y. The vaccinal composition is injected intra-muscularly […] in ten (10) OF1 mice, at a dose of 100 μg/injection once every 2 weeks at days 0, 15, 30, 45. The sera of the animals are taken after the boosts at days 20, 38, 60 and 80 and are tested by ELISA at a dilution of 1/500 and on a coating of murine IL-23. The ELISA results are given as optical density (OD450nm) values. FIG. 5 presents the mean OD450nm value obtained at each time-point for the 10 mice tested. The grey line represents the response of mice immunized with the peptide derivative of IL-23 (triangles). The dotted lines represents the response of control mice immunized with the vehicle (empty grey diamonds), and control mice immunized with the carrier protein only (empty grey squares).

[6] = test system: experimental autoimmune encephalomyelitis; assay: Experimental autoimmune encephalomyelitis mouse model of multiple sclerosis, vaccination; assay type: in vivo; settings: C57BL/6 mice, 100 μg/animal s.c. 4 times, 30 days follow-up, versus carrier and PBS groups, p=0.0003
Method: The experimental autoimmune encephalomyelitis in mice is a well-known model of multiple sclerosis. Three groups of 12 C57BL/6 mice were injected 4-times (s.c.) either with 1/100 μg/animal of the same peptide derivative of murine IL-23 as in example 9 coupled with KLH and emulsioned in CFA for the initial immunization and IFA (ISA51) for the subsequent boosts, or with 2/the carrier protein prepared in the same conditions, or with 3/PBS alone. The injections took pace at day 0, 15, 30 and 45.
To induce the experimental disease, mice were immunized (s.c.) at two sites with 200 μg of MOG peptide 35-55 in […] of Complete Freund's Adjuvant (CFA) at day 60. On the same day and after two days, mice were injected (i.p.) with, respectively 75 and 200 ng/mouse, of pertussis toxin (List Biological Laboratories). The mice were then assessed daily for clinical signs of EAE according to the following well-known scoring method (Sinha et al., J. Immunol., 2008): 0, normal; 0.5, limp tail; 1, tail paralysis; 2, mono or paraparesis of the hind limbs; 3, mono or paraplegia of the hind limbs; 4, paraplegia of the forelimb; 5, moribund condition or death. The follow-up was done on a period of 30 days as shown (cf. FIG. 7).

[7] = test system: collagen-induced arthritis; assay: Collagen-induced arthritis mouse model of rheumatoid arthritis, vaccination; assay type: in vivo; settings: DBA/1 mice
Source text: The collagen-induced arthritis is a well-known model of rheumatoid arthritis, which reproduces the main features characterizing the human disease. The experimental disease is induced in the animal by two successive injections of type II bovine collagen in the tail. Clinical signs of disease occur a few days later, principally marked by a severe articular inflammation and the joint destruction. The articular inflammation can be quantified and reported as clinical scores by the person of the art: a score from 0 (no clinical sign) to 4 (total inflammation) is given for each articulation of each mouse. Groups of 10 mice are compared by the mean value of the scores obtained on […]. Similarly, the articular inflammation and destruction can be observed on histological sections of joints and be reported as histological scores by the person of the art.
DBA/1 mice (n=10 per treatment group) were vaccinated two weeks before the first injection of collagen either with the cyclised peptide derived from mIL23: C-DSD IFK GEP ALL PDS PME QL-C-Y (coupled with KLH via BDB and an additional tyrosine on the C-terminus), or with a control made of KLH alone, or with PBS alone. The injected dose in each mice corresponded to 100 μg of coupled peptide for the peptide group, and to 100 μg of KLH alone for the KLH control group, all in complete Freund's adjuvant. […]

Substance	Neutralization of the biological activity of murine IL-23 [2]	Average % neutralization, SD [1]	Average Titers50 (ELISA), SD [4]	Neutralization of the biological activity of human IL-23 [1]	Recognition of murine IL-23 by antibodies raised against the peptide (ELISA) [3]	Recognition of human IL-23 by antibodies raised against the peptide (ELISA) [4]	also measured
C-DSD IFK GEP ALL PDS PME QL-C	can neutralize mIL-23	–	–	cross-neutralize hIL-23	–	–	–
DSD IFK GEP ALL PDS PME QL (DSDIFKGEPALLPDSPMEQL; Mus Musculus) [peptide derivative of mouse IL-23p19]	–	–	–	–	could recognize both the murine and human IL-23 cytokines	could recognize both the murine and human IL-23 cytokines	Generation of anti-mIL-23 antibodies in mice [5]: anti-mIL-23 Abs could be generated in mice
C-LPD SP-C-Y (CLPDSPCY; sub-sequence of seq ID NO2 with N-terminal cystein and C-terminal cystein and tyrosin) [CLPDSPC-Y, peptide 2 derived from hIL-23]	–	39 ± 11%	2287 ± 175	–	–	–	–
C-DSD IFK GEP ALL PDS PME QL-C-Y	–	–	–	–	–	–	Clinical signs of EAE (disease activity score) [6]: statistically significant lower disease activity than the two control groups; Clinical scores of articular inflammation ([7]; 100 μg coupled peptide in CFA plus boosts in IFA, followed until day 80, versus KLH alone or PBS): statistically significant protection at the late stage of disease; Histological scores of articular inflammation and destruction ([7]; histological sections of joints): limits the extent of both the articular inflammation and destruction at the histological level

More lines, main results first:

Neutralization of the biological activity of murine IL-23 [2]	Average % neutralization, SD [1]	Average Titers50 (ELISA), SD [4]	Substance	Neutralization of the biological activity of human IL-23 [1]	Recognition of murine IL-23 by antibodies raised against the peptide (ELISA) [3]	Recognition of human IL-23 by antibodies raised against the peptide (ELISA) [4]	also measured
neutralize its biological activity	–	–	C-GSD IFT GEP SLL PDS PVG QL-C-Y (GSDIFTGEPSLLPDSPVGQL; not fully specified; terminal cysteines and C-terminal tyrosine; listed as Homo Sapiens) [peptide derivative of human IL-23 subunit p19, region Gly105 to Leu124, with two terminal cysteines and a C-terminal tyrosine]	could neutralize the biological activity of the human cytokine	could recognize the murine IL-23 cytokine	could generate antibodies recognizing the whole human IL-23 cytokine	–
–	35 ± 7%	1758 ± 153	CTGEPSC (sub-sequence of seq ID NO2 with C-terminal and N-terminal cystein) [C-TGE PS-C, peptide 1 derived from hIL-23]	–	–	–	–
